Assay results published in the DeepSol protein solubility set.

Experiment: soluble on expression in E. coli; label from the status in PepcDB or PDB records

Row | Sequence | soluble on expression in E. coli
1 | MLVLGDAHATTPGRRRALFAAYRAANESVAVQAGDLMYYDLPVQTYFIGGNNEDFDAIDALRNGRVESDDVANATLLNSTAATVDGRRVAGLTGNYAPTQFDKPRAVLRGDRRRHFVRSDVEAVMDLDDIDIFVAHEAPNGLPVEEDYDVGCQHIDDILDALQPSLCLVGHHHQHAECDYGDTHVVGLEPAWESYYVVDPDTLAVTRHDTPPALEHHHHHH | not soluble
2 | MSEFEGWIKWLEPVFLLWKPEDPGYERPAYRDWTKEEDEPKYSPEKELALLDKQILASDGFDIDFTHFRCVFNYHLAYLDSHEFVDEPETTRDLLERLSRKALDDYNQESVVKANFHFCCAIMFLITFEVVDPYDNLIKLFQTRVRHAEDIVTEYVFCRPKPNQGVECIGVKNNDGKDVQTNVKEQEIPCMYGWFLRVITITFTLQIGVGASICHKE | soluble
3 | MTKTEPNNAQLDWLESESIHIIREVAAECENPALLFSGGKDSVVLLALACKAFRLGSRPVKLPFPLVHIDTGHNYPEVIAFRDAQAAKLNARLIVGRVEDSIAKGTVVLRKETDSRNAAQAVTLLETIEANGFDALMGGARRDEEKARAKERIFSFRDEFGQWDPKAQRPELWSLYNTRLHKGENMRVFPISNWTELDIWQYIARENLELPPIYYSHRREVVRRRGLLVPVTPLTPKMPSETSEILDVRFRTVGDISCTCPVESTASTPTEIIRETAVADISERSATRLDDQASEAAMEKRKKEGYF | not soluble
4 | MAASTFFIPSVNVIGADSLTDAMNMMADYGFTRTLIVTDNMLTKLGMAGDVQKALEERNIFSVIYDGTQPNPTTENVAAGLKLLKENNCDSVISLGGGSPHDCAKGIALVAANGGDIRDYEGVDRSAKPQLPMIAINTTAGTASEMTRFCIITDEARHIKMAIVDKHVTPLLSVNDSSLMIGMPKSLTAATGMDALTHAIEAYVSIAATPITDACALKAVTMIAENLPLAVEDGSNAKAREAMAYAQFLAGMAFNNASLGYVHAMAHQLGGFYNLPHGVCNAVLLPHVQVFNSKVAAARLRDCAAAMGVNVTGKNDAEGAEACINAIRELAKKVDIPAGLRDLNVKEEDFAVLATNALKDACGFTNPIQATHEEIVAIYAAR | not soluble
5 | MEAEELTVGRVHHGHNIRRFRIEKNMNQEVLSQLVHLSQSAVSKYEQMRVIDDEMLHRFSRALGVPFEYLKSLEEDAQTVVFENNTVNNNDQASANIGGYVEENNRVNNYNPIEKITELYERLLKEKDEKYAALERRLQNIEQSLQK | not soluble
6 | GMAYGSSNPEDLAKNFTKDLYSGDTKSVMSYIDLSEAKSDEEKTFVSDKITQVVAENAAKAKRMGGVKDIQIEEKTINKDSAKIRVLVLFNNDNNQSSNVFLAKKDRKWLVLLK | soluble
7 | MADKKEKLFSDFSPVSTEQWMEKVTADLKGADFEKKLVWKTNEGFKVKPFYRMEDLEGLKTTDALPGEFPYLRGTKKSNNEWLVRQEIKVECPKEANAKALDILNKGVDSLSFHVKAKELNAEYIETLLNGIQAECVELNFSTCQGHVVELAGLLVAYFQKKDYDVKKLRGSVNYDFFNKMLTRGKEKGDMVQTAKALIEAIQPLPFYRVLNVNAISLNNAGAYISQELGYALAWGNEYMNQLTDAGIPAATVAKKIKFNFGISSNYFLEIAKFRAARMLWANIVASYHPECLRDCDNKGANGECRCAAKMAVHAETSTFNLTLFDAHVNLLRTQTEAMSAALAGVDSMTVVPFDKTYSTPDEFSERLARNQQLLLKEESHFDKVIDPAAGSYYIENLTVSIAKQAWELFLAVEEAGGFYAALKAGTVQAAVNESNKARHKAVAQRREVLLGTNQFPNFNEKAGEKQPIEAKCCCGGDAHTCEKDVDTLVFDRAASEFEALRLETEASGKRPKAFMLTIGNLAMRQARAQYSCNFLACAGYEVIDNLGFETVEAGVEAAMAAKADIVVLCSSDDEYAEYAVPAFKALDGRAMFIVAGAPACMDELKAAGIENFIHVRVNVLDTLKEFNAKLLK | not soluble
8 | LGLWPVHRLSEEARRISPRQLSQRLQLSPLPAELRELVGAFNGALDRLEQAYVRLESFNADVAHELRTPLTNLIGQTQVALSRERSGEHYEEVLQSNLEELERLRAIVNDMLFLARADQGRLACEREETSLAGEIATTVDFLEVIFDEAGVGIEVRGEARALVERALFQRAVTNLLYNAAQHTAAGGTLRVGVERRGDEVRVAVSNPGVPIADEHRRHLFERFYRVDAARSNSEANHGLGLSIVKAVASMHGGSVFVDSADGWNTFGFTVLSPERRGPGDR | not soluble
9 | MYEQACTTILVGKKATVDGSTMIARNDDTFMPITPQKFIVHPAVHGRNETLTSGKNGFTAPLPADGYRYQAVPNIEVAEKGVFEENGFNEKNVGVSSTESVYGNEHTLTFDPFVPNGLAEDSLPTMLTPFIDSARGGVEYLGQLIAKYGSPEGNGVLFNDKDDVWYMEIVTGHHWVAQRIPDDAYAVAANQVAIQWVDFDDPDNFMWSDGIQEFVAEHHLNPDKEGFNFRHIFGTDNEKDRHYNTPRVWYGQRYFNPEIEQDPQSSELPFICHAAKKISVADVEFVLGSHYNETKYDPFLNTPEAKKFRPISMNRTQNSHVMQVRNDVPAEQSAIMWMTFGVPAFAPYLPFHANVSETDPSFANTPLKHDMNSAYWLYRTLSMIVESHYADFVQDDIDYLKECRIELGQFVAATDEQAAKLSGDELTAFLTEQDKVMVAKMRDKAQALIGQLVTKGLTLSKLTYNVDINLLEHHHHHH | not soluble
10 | MASISRARQVELLLVADASMARKYGRGLQHYLLTLASIANRLYSHASIENHIRLAVVKVVVLGDKDKSLEVSKNAATTLKNFCKWQHQHNQLGDDHEEHYDAAILFTREDLCGHHSCDTLGMADVGTICSPERSCAVIEDDGLHAAFTVAHEIGHLLGLSHDDSKFCEETFGSTEDKRLMSSILTSIDASKPWSKCTSATITEFLDDGHGNCLLDLPRKQI | soluble
11 | MGLSCTDDWRVIDLPGSFITVTNLNQFTLNGDGFAARMEMTLVAPDHGGDSDLIAMGELIEQAISGVRSLGGAIESIELNQQVTPPHGGKAPASTMTFTLFYDMENEE | not soluble
12 | SQEQAQTTDWRATLKTIRNGVHKIDTYLNAALDLLGGEDGLCQYKCSDGSKPFPRYGYKPSPPNGCGSPLFGVHLNIGIPSLTKCCNQHDRCYETCGKSKNDCDEEFQYCLSKICRDVQKTLGLTQHVQACETTVELLFDSVIHLGCKPYLDSQRAACRCHYEEKTDL | soluble
13 | MGSDKIHHHHHHMRTKIGIYLSSEPESGGMFQYGLSILDAAASLPRDRYQTTVAFISERWNEHLKFRNLEHFQISPNFLWRIFKGKGWLLLNLPISFWRWILINLNPFFYKRLIQEGCDLWLFPSQDTWTYLLRLNSLGVVHDLMHRYEKKFSEVAAPFEYRRRERHYRAMCEYSKGILVDSNYGKRQVLESYDAKPDFIHVLPYVPPEYINIKNAPIDFDSRYNLPRKFLFYPAQFWEHKNHHNLLAALAHLKRELRDIHVVLVGSKKNAYKKTLGYINSMNLSDHVIILGYVPNEDMAEFYRRARALVFPSFFGPTNIPPLEACAAGCPLAVSNIYGMPEQLGDAALFFNPHSVEEIHLAMKRLWIDDALCRQLSMNGKKWAKAWNQNSFNRQFQVIIEEVLKNPNT | not soluble
14 | MGSDKIHHHHHHMIHKLADVQSQNIGDNTKVWQFCVILAGAVIGRNCNICANSLIENDVVIGDNVTIKSGVQIWDGIHIQDDVFIGPNVTFTNDKQPRSKIYPDEYLKTIVKKGASIGANSTILPGILIGENAMVGAGAVITKNVPDNAIVIGNPGRITGYVEANTGVIMPSNNFELKLQMSKVKGVSLHKFHLVNDLRGNLSVGEFEKDIPFTPKRYFTVFGVPNKEVRGEHAHKECKQFLICVSGNCSVLVDDGENREEYVLDSIDKGIYLPPMTWGVQYKYSKDAVLLVFASHYYDSDDYIRDYSTFKQMRQN | not soluble
15 | MGSDKIHHHHHHMLDKSRLSRFKTQIDSQTEIAKFDALAKEWRDPHGKFKHVLSFNQTRLTAIEDQIASHFGRDLTQDIPFDGLSLLDIGCGVGLLCEPLASQGARVTGIDASEHNITLAHRHANSWSIPIEYRHCLAGDLPREQPQYDVILNTEVIEHVEDQAALVASCCDLLKPGGLMVMATLNRTLRSYLIGIIGAEYIMRYLPTGTHDWHHFVTPQELDEMLTPHGLSTKGVEGMAFNPFTRRWKITSNSAVNYLLYASKPIPGVLEA | not soluble
